According to paper PMC2874686:

Target: T1, Apaf-1 (human), O14727
T1 chain: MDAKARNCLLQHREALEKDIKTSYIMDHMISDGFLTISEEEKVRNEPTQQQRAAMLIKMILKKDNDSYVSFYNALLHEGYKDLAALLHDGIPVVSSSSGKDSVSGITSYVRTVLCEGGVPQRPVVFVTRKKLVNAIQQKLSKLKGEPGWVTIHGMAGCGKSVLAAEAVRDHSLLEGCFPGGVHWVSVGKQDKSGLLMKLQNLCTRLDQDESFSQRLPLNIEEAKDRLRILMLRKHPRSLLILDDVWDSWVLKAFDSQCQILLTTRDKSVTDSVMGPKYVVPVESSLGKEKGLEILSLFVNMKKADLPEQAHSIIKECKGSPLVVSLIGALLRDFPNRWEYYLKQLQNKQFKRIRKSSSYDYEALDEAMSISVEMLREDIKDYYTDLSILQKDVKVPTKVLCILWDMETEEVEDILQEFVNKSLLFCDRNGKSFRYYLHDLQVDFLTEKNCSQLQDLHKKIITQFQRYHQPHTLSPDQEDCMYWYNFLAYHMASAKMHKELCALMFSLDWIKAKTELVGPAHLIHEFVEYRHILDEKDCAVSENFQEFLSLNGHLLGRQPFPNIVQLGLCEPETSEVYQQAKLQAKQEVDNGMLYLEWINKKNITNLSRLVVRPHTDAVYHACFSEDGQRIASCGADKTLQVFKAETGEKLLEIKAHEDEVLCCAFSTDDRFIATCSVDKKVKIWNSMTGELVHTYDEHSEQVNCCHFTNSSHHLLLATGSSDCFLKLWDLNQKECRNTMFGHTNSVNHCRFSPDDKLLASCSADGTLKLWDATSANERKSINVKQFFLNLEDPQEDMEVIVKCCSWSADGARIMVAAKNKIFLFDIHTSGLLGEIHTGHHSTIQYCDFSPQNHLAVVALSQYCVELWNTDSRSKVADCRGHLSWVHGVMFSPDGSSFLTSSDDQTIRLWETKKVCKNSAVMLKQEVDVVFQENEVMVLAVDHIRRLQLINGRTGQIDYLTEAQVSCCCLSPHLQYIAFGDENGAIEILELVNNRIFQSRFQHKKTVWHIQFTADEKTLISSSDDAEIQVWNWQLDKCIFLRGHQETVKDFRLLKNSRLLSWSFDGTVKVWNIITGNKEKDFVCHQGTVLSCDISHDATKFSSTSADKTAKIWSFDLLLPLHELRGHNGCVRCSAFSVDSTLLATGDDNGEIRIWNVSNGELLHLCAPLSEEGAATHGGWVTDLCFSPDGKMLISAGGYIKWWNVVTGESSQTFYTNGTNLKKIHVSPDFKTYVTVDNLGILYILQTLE
Experiment: cryo-EM structure
Conditions: remark: other sources report otherwise

B1: Apaf-1, O14727 1-1248 (natural protein)
chain: T1 chain
stoichiometry N: 7
